Reference: PMC3728347

Experiments:
GNMT D70A mutant = GNMT D70A mutant (UniProt Q14749); assay: SEC; size-exclusion chromatography of wild type GNMT and catalytic-centre mutants; data not shown
GNMT M218D mutant = GNMT M218D mutant (UniProt Q14749); assay: SEC; size-exclusion chromatography on Sephacryl S300 of the folate-site mutants
GNMT Y244A mutant = GNMT Y244A mutant (UniProt Q14749); assay: SEC; size-exclusion chromatography of wild type GNMT and catalytic-centre mutants; data not shown
GNMT W30F mutant = GNMT W30F mutant (UniProt Q14749); assay: as above
[1] = molecular target: Glycine N-methyltransferase, wild type (UniProt Q14749); assay: as above
GNMT L210S mutant = GNMT L210S mutant (UniProt Q14749); assay: SEC; size-exclusion chromatography on Sephacryl S300 of the folate-site mutants
GNMT Y6E mutant = GNMT Y6E mutant (UniProt Q14749); assay: as above

GNMT D70A mutant (from UniProt Q14749 1-295) (enzyme)
stoichiometry N (GNMT D70A mutant): 4

GNMT M218D mutant (from UniProt Q14749 1-295) (enzyme)
stoichiometry N (GNMT M218D mutant): 4

GNMT Y244A mutant (from UniProt Q14749 1-295) (enzyme)
stoichiometry N (GNMT Y244A mutant): 4

GNMT W30F mutant (from UniProt Q14749 1-295) (enzyme)
stoichiometry N (GNMT W30F mutant): 4

Glycine N-methyltransferase, wild type (from UniProt Q14749 1-295) (enzyme)
stoichiometry N [1]: 4

GNMT L210S mutant (from UniProt Q14749 1-295) (enzyme)
percent of the protein as dimer (GNMT L210S mutant): 50% | percent of the protein as monomer (GNMT L210S mutant): 10% | percent of the protein as tetramer (GNMT L210S mutant): 40%

GNMT Y6E mutant (from UniProt Q14749 1-295) (enzyme)
stoichiometry N (GNMT Y6E mutant): 4
